From PMC11417369, “DNA sequence and chromatin differentiate sequence-specific transcription factor binding in the human malaria parasite Plasmodium falciparum”

T1: AP2-LT D1 (Plasmodium falciparum, UniProt Q8IAM1 2520-2577)
T1 sequence: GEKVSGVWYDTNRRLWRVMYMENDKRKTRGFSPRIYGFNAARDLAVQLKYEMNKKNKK


Molecular target: T1, AP2-LT D1
Test: gcPBM; about 25 ug protein; PBS, 1% milk, 0.2 mg/ml BSA, salmon testes DNA, 0.03% Triton X-100
Details: tags: N-terminal GST (pGEX-4T-1), kept; label: surface-attached array probe

Row | Binder | binding signal
1 | CACACA_site1192 (dsDNA) DNA 1: AAAAATACCTTATATATACACACTATGTTTTTCTTT DNA 2: AAAGAAAAACATAGTGTGTATATATAAGGTATTTTT | 9.31 ln median PBM intensity, better of two orientations
2 | CACACA_site7896 (dsDNA) DNA 1: TATACATACATACATACACACACACCGATATATATA DNA 2: TATATATATCGGTGTGTGTGTATGTATGTATGTATA | 9.94 ln median PBM intensity, better of two orientations
3 | CACACA_site452 (dsDNA) DNA 1: CACAAAGACACAAACACACACACACCCACATACATA DNA 2: TATGTATGTGGGTGTGTGTGTGTTTGTGTCTTTGTG | 10 ln median PBM intensity, better of two orientations
4 | CACACA_site8278 (dsDNA) DNA 1: GTAACATACACATATACACACACACCGATATACATA DNA 2: TATGTATATCGGTGTGTGTGTATATGTGTATGTTAC | 10 ln median PBM intensity, better of two orientations
5 | CACACA_site6577 (dsDNA) DNA 1: AGCAACCCCCTAGCTACACACATATAGATATAAATA DNA 2: TATTTATATCTATATGTGTGTAGCTAGGGGGTTGCT | 9.99 ln median PBM intensity, better of two orientations
6 | CACACA_site8658 (dsDNA) DNA 1: AACGAAAGAAAAAAAGCACACACAGTTTTGAGCAAT DNA 2: ATTGCTCAAAACTGTGTGTGCTTTTTTTCTTTCGTT | 9.6 ln median PBM intensity, better of two orientations
7 | CACACA_site1293 (dsDNA) DNA 1: CACACCCACAAAAACACACACAAAGGTGTTCTTATA DNA 2: TATAAGAACACCTTTGTGTGTGTTTTTGTGGGTGTG | 9.62 ln median PBM intensity, better of two orientations
8 | CACACA_site1139 (dsDNA) DNA 1: TCTGTTAATATTTATACACACATATATATATATATA DNA 2: TATATATATATATATGTGTGTATAAATATTAACAGA | 9.45 ln median PBM intensity, better of two orientations
9 | CACACA_site699 (dsDNA) DNA 1: ATTTATATATAATATACACACATATAATCCACATAT DNA 2: ATATGTGGATTATATGTGTGTATATTATATATAAAT | 9.4 ln median PBM intensity, better of two orientations
10 | CACACA_site1961 (dsDNA) DNA 1: ATTTTTTAACATATCATACACACAACCACTTTTTAT DNA 2: ATAAAAAGTGGTTGTGTGTATGATATGTTAAAAAAT | 9.38 ln median PBM intensity, better of two orientations
11 | CACACA_site3695 (dsDNA) DNA 1: AAGCTTCATTAATATACACACATATATGCGTATATT DNA 2: AATATACGCATATATGTGTGTATATTAATGAAGCTT | 9.46 ln median PBM intensity, better of two orientations
12 | CACACA_site2423 (dsDNA) DNA 1: GTGCATAAATCATACACACACACATATATATATATA DNA 2: TATATATATATATGTGTGTGTGTATGATTTATGCAC | 10 ln median PBM intensity, better of two orientations
13 | CACACA_site8178 (dsDNA) DNA 1: TACATATAAACAATAACACACACCTAGGTACATGGA DNA 2: TCCATGTACCTAGGTGTGTGTTATTGTTTATATGTA | 9.55 ln median PBM intensity, better of two orientations
14 | CACACA_site2254 (dsDNA) DNA 1: TTTTTTTTTATTATCATGCACACATTTTTTTTTTTT DNA 2: AAAAAAAAAAAATGTGTGCATGATAATAAAAAAAAA | 9.48 ln median PBM intensity, better of two orientations
15 | CACACA_site8242 (dsDNA) DNA 1: AATTTACACGTACGTGTACACACAAAAATATGTTTT DNA 2: AAAACATATTTTTGTGTGTACACGTACGTGTAAATT | 9.37 ln median PBM intensity, better of two orientations
16 | CACACA_site9096 (dsDNA) DNA 1: TCATAAATTAAACACACACACACATCTGGATACCCC DNA 2: GGGGTATCCAGATGTGTGTGTGTGTTTAATTTATGA | 10.1 ln median PBM intensity, better of two orientations
17 | CACACA_site126 (dsDNA) DNA 1: ACGATATTTTTGGTGACACACATATATATATATATA DNA 2: TATATATATATATATGTGTGTCACCAAAAATATCGT | 9.9 ln median PBM intensity, better of two orientations
18 | CACACA_site5706 (dsDNA) DNA 1: CTATTTTGGATGTGTACACATATATATATTTATATT DNA 2: AATATAAATATATATATGTGTACACATCCAAAATAG | 9.41 ln median PBM intensity, better of two orientations
19 | CACACA_site8541 (dsDNA) DNA 1: AAGTACATACATAAAACACACACATATATATATATA DNA 2: TATATATATATATGTGTGTGTTTTATGTATGTACTT | 9.93 ln median PBM intensity, better of two orientations
20 | CACACA_site4122 (dsDNA) DNA 1: AAAACAAACACATTTACACACATAAATAAATCAATT DNA 2: AATTGATTTATTTATGTGTGTAAATGTGTTTGTTTT | 9.58 ln median PBM intensity, better of two orientations
21 | CACACA_site3522 (dsDNA) DNA 1: ATATAAAATAGACACGCACACAAAAAAAAAAAAAAA DNA 2: TTTTTTTTTTTTTTTGTGTGCGTGTCTATTTTATAT | 9.59 ln median PBM intensity, better of two orientations
22 | CACACA_site262 (dsDNA) DNA 1: ATTATGTATACATAAACACACATATATATAAAAAAA DNA 2: TTTTTTTATATATATGTGTGTTTATGTATACATAAT | 9.35 ln median PBM intensity, better of two orientations

Row | Binder | binding signal
23 | CACACA_site3715 (dsDNA) DNA 1: ATATATATATAATAAACACACAAATAGATATAACAT DNA 2: ATGTTATATCTATTTGTGTGTTTATTATATATATAT | 9.52 ln median PBM intensity, better of two orientations
24 | CACACA_site1083 (dsDNA) DNA 1: CTACACAAGCATTAAACACACAAAAGGGATACTTTG DNA 2: CAAAGTATCCCTTTTGTGTGTTTAATGCTTGTGTAG | 9.43 ln median PBM intensity, better of two orientations
25 | CACACA_site4591 (dsDNA) DNA 1: CACATACAGATATATACACACAAATATATATACTCA DNA 2: TGAGTATATATATTTGTGTGTATATATCTGTATGTG | 9.49 ln median PBM intensity, better of two orientations
26 | CACACA_site4472 (dsDNA) DNA 1: TTTGAATCCTTATATACACACATTATATAATATTAT DNA 2: ATAATATTATATAATGTGTGTATATAAGGATTCAAA | 9.33 ln median PBM intensity, better of two orientations
27 | CACACA_site651 (dsDNA) DNA 1: ATACATATAGGATGCACACATAATTCAAATACAATA DNA 2: TATTGTATTTGAATTATGTGTGCATCCTATATGTAT | 9.54 ln median PBM intensity, better of two orientations
28 | CACACA_site3128 (dsDNA) DNA 1: CCACTAATAAATATTACACACATATATATATATATT DNA 2: AATATATATATATATGTGTGTAATATTTATTAGTGG | 9.47 ln median PBM intensity, better of two orientations
29 | CACACA_site3391 (dsDNA) DNA 1: AAAAAAAAAAAAAACACACATACACGCCCACCCATA DNA 2: TATGGGTGGGCGTGTATGTGTGTTTTTTTTTTTTTT | 10.1 ln median PBM intensity, better of two orientations
30 | CACACA_site4294 (dsDNA) DNA 1: TTTATTAATGGACACACACACACACCCAAAATAAAA DNA 2: TTTTATTTTGGGTGTGTGTGTGTGTCCATTAATAAA | 10.1 ln median PBM intensity, better of two orientations
31 | CACACA_site242 (dsDNA) DNA 1: TTTATTAAGAAACACACACACACACCCAAAATAAAA DNA 2: TTTTATTTTGGGTGTGTGTGTGTGTTTCTTAATAAA | 10.1 ln median PBM intensity, better of two orientations
32 | CACACA_site5230 (dsDNA) DNA 1: ATAATATCATCAAACGCACACATACATAAATATATT DNA 2: AATATATTTATGTATGTGTGCGTTTGATGATATTAT | 9.51 ln median PBM intensity, better of two orientations
33 | CACACA_site6367 (dsDNA) DNA 1: AATATCTTAGTGGATACACACATATAAATGTGTATT DNA 2: AATACACATTTATATGTGTGTATCCACTAAGATATT | 9.32 ln median PBM intensity, better of two orientations
34 | CACACA_site5583 (dsDNA) DNA 1: ATTAAATACATTAACACACACACAAATAAATACATA DNA 2: TATGTATTTATTTGTGTGTGTGTTAATGTATTTAAT | 9.88 ln median PBM intensity, better of two orientations
35 | CACACA_site5591 (dsDNA) DNA 1: ATAATATAAACATACACACACACATATATATATATA DNA 2: TATATATATATATGTGTGTGTGTATGTTTATATTAT | 10.1 ln median PBM intensity, better of two orientations
36 | CACACA_site7437 (dsDNA) DNA 1: AGATAAAAAAAGTACACACACACATATATTTATATA DNA 2: TATATAAATATATGTGTGTGTGTACTTTTTTTATCT | 9.98 ln median PBM intensity, better of two orientations
37 | CACACA_site5592 (dsDNA) DNA 1: AATATAAACAAACACACACACATATATATATATATT DNA 2: AATATATATATATATGTGTGTGTGTTTGTTTATATT | 9.96 ln median PBM intensity, better of two orientations
38 | CACACA_site5015 (dsDNA) DNA 1: ACCTCATAATATTTAACACACAAAATTATCTGTATG DNA 2: CATACAGATAATTTTGTGTGTTAAATATTATGAGGT | 9.39 ln median PBM intensity, better of two orientations
39 | CACACA_site2284 (dsDNA) DNA 1: AAAAAAAAAAAAGGCACACAAACATATGTAGACATA DNA 2: TATGTCTACATATGTTTGTGTGCCTTTTTTTTTTTT | 9.56 ln median PBM intensity, better of two orientations
40 | CACACA_site8822 (dsDNA) DNA 1: ATTATGCACCAACACACACACACACTCCTAAAAAAT DNA 2: ATTTTTTAGGAGTGTGTGTGTGTGTTGGTGCATAAT | 9.97 ln median PBM intensity, better of two orientations
41 | CACACA_site2004 (dsDNA) DNA 1: AAAATGTGCCCACGCGTACACACAAAAAAAGAAAAA DNA 2: TTTTTCTTTTTTTGTGTGTACGCGTGGGCACATTTT | 9.36 ln median PBM intensity, better of two orientations
42 | CACACA_site960 (dsDNA) DNA 1: TGAATATTTACTTTAGCACACAATTTGTATTTGATT DNA 2: AATCAAATACAAATTGTGTGCTAAAGTAAATATTCA | 9.42 ln median PBM intensity, better of two orientations
43 | CACACA_site2459 (dsDNA) DNA 1: ACCTAAGAACTATTTACACACATATACAAAATATAT DNA 2: ATATATTTTGTATATGTGTGTAAATAGTTCTTAGGT | 9.34 ln median PBM intensity, better of two orientations
44 | CACACA_site656 (dsDNA) DNA 1: ACAATATCTAGATACACACACATATCTCTCAATCTA DNA 2: TAGATTGAGAGATATGTGTGTGTATCTAGATATTGT | 9.5 ln median PBM intensity, better of two orientations
